From patent US20210380680A1 (ZLLP, published 2021)

Key:
[1] = biological target: T1, human Claudin 18.2 (CLDN18.2) (human, UniProt P56856-2 1-261); assay: FACS Exp. 1, MFI ratio CHO-18.2 over CHO-18.1
T1 construct: whole, on cells; recombinantly expressed on CHO, HEK293, NCI-N87, NUGC4 or PANC-1 cells; also called CHO-CLDN18.2

[2] = biological target: T1, human Claudin 18.2 (CLDN18.2); assay: FACS Exp. 2, MFI ratio CHO-18.2 over CHO-18.1
[3] = biological target: T2, CLDN18.2 endogenously expressed on SNU620 gastric cancer cells (UniProt P56856-2 1-261, limits assumed); assay: FACS Exp. 3, SNU620 cells
T2 construct: whole, on cells; also called SU620

[4] = biological target: T1, human Claudin 18.2 (CLDN18.2); assay: cell-based or functional assay
[5] = biological target: T1, human Claudin 18.2 (CLDN18.2); assay: FACS on CHO-CLDN18.2 cells
[6] = biological target: T1, human Claudin 18.2 (CLDN18.2); assay: cell-based or functional assay; remark: listed apart in the source

Binder	% ADCC @ 6.67 nM, NCI-N87-CLDN18.2, FcR-TANK [4] [%]	ADCC EC50, NCI-N87-CLDN18.2, FcR-TANK [4] [nM]	EC50 [5] [nM]	% specific cytotoxicity @ 6.67 nM, NUGC4-CLDN18.2, PBMC [6] [%]	ADCC EC50, NUGC4-CLDN18.2, PBMC [6] [nM]	further results
hz282-19 (antibody, V domains shown, humanized IgG; constant regions not specified) VH: QVQLQESGPGLVKPSETLSLTCTVSGFSLTSYNVYWIRQPPGKGLEWIGVIWNTGATRYNSALKSRVTISKDTSKSQVSLKLSSVTAADTAVYYCARDSAMPAIPFAYWGQGTLVTVSS VL: DIVMTQSPSSLSASVGDRVTINCKSSQSLFGSVRQKNYLAWYQQKPGKSPKLLIYLASTRESGVPDRFSGSGSGTDFTLTISSLQPEDFAKYYCQQYYDIPWTFGGGTKVEIK						MFI_CHO-18.2/CHO-18.1 (@30 ug/ml) [1]: 812; MFI_CHO-18.2/CHO-18.1 (@30 ug/ml) [2]: 1010; MFI_SNU620 (@30 ug/ml) [3]: 1310 MFI
hz282-3 (antibody, V domains shown, humanized IgG; constant regions not specified) VH: QVQLQESGPGLVKPSETLSLTCTVSGFSLTSYNVYWIRQPPGKGLEWIGVIWNTGATRYNSALKSRVTISKDTSKSQVSLKLSSVTAADTAVYYCARDSAMPAIPFAYWGQGTLVTVSS VL: DIVMTQSPDSLAVSLGERATINCKSSQSLFGSVRQKNYLAWYQQKPGQPPKLLIYLASTRESGVPDRFSGSGSGTDFTLTISSLQAEDVAVYYCQQYYDIPWTFGGGTKVEIK						MFI_CHO-18.2/CHO-18.1 (@30 ug/ml) [1]: 1100; MFI_CHO-18.2/CHO-18.1 (@30 ug/ml) [2]: 1670; MFI_SNU620 (@30 ug/ml) [3]: 1150 MFI
hz282-18 (antibody, V domains shown, humanized IgG; constant regions not specified) VH: QVQLQESGPGLVKPSETLSLTCTVSGFSLTSYNVYWIRQPPGKGLEWIGVIWNTGATRYNSALKSRVTISKDTSKNQVSLKLSSVTAADTAVYYCARDSAMPAIPFAYWGQGTLVTVSS VL: DIVMTQSPSSLSASVGDRVTINCKSSQSLFGSVRQKNYLAWYQQKPGKSPKLLIYLASTRESGVPDRFSGSGSGTDFTLTISSLQPEDFAKYYCQQYYDIPWTFGGGTKVEIK						MFI_CHO-18.2/CHO-18.1 (@30 ug/ml) [1]: 781; MFI_SNU620 (@30 ug/ml) [3]: 1210 MFI
413H9F8-cp3 (antibody, V domains shown, humanized IgG; constant regions not specified) VH: DVQLVESGGGLVQPGGSLRLSCAASGFTFSSFGMHWVRQAPGKGLEWVAYISSGSSPIYYVDKLKGRFTVSRDNAKNSLYLQMNSLRAEDTAVYYCARAGYAVRNALDYWGQGTLVTVSS VL: EIVMTQSPPTLSLSPGERVTLSCKSSQSLLNVGNQKNYLAWYQQKPGQAPRLLIYGASTRESGIPARFSGSGSGTDFTLTISSLQPEDFAVYYCQNDLFYPLTFGGGTKVEIK	11.1	0.22	2.09	30.5	5.86	
413H9F8-cp5 (antibody, V domains shown, humanized IgG; constant regions not specified) VH: DVQLVESGGGLVQPGGSLRLSCAASGFTFSSFGMHWVRQAPGKGLEWVAYISSGSSPIYYVDKLKGRFTISRDNAKNSLYLQMNSLRAEDTAVYYCARAGYAVRNALDYWGQGTLVTVSS VL: DIVMTQSPPTLSLSPGERVTLSCKSSQSLLNVGNQKNYLAWYQQKPGQAPRLLIYGASTRESGIPDRFSGSGSGTDFTLTISSLQPEDFAVYYCQNDLFYPLTFGGGTKVEIK	14.1	0.27	2.54	29.6	7.75	
413H9F8-cp7 (antibody, V domains shown, humanized IgG; constant regions not specified) VH: EVQLVESGGGLVQPGGSLRLSCAASGFTFSSFGMHWVRQAPGKGLEWVSYISSGSSPIYYVDKLKGRFTISRDNAKNSLYLQMNSLRAEDTAVYYCARAGYAVRNALDYWGQGTLVTVSS VL: DIVMTQSPPTLSLSPGERVTLSCKSSQSLLNVGNQKNYLAWYQQKPGQAPKLLIYGASTRESGIPDRFSGSGSGTDFTLTISSLQPEDFAVYYCQNDLFYPLTFGGGTKVEIK	13.3	0.28	2.47	29.7	6.68	
413H9F8-cp8 (antibody, V domains shown, humanized IgG; constant regions not specified) VH: DVQLVESGGGLVQPGGSLRLSCAASGFTFSSFGMHWVRQAPGKGLEWVAYISSGSSPIYYVDKLKGRFTISRDNAKNSLYLQMNSLRAEDTAVYYCARAGYAVRNALDYWGQGTLVTVSS VL: DIVMTQSPPTLSLSPGERVTLSCKSSQSLLNVGNQKNYLAWYQQKPGQAPKLLIYGASTRESGIPDRFSGSGSGTDFTLTISSLQPEDFAVYYCQNDLFYPLTFGGGTKVEIK	13.1	0.27	2.72	27.7	8.85	
413H9F8-cp4 (antibody, V domains shown, humanized IgG; constant regions not specified) VH: EVQLVESGGGLVQPGGSLRLSCAASGFTFSSFGMHWVRQAPGKGLEWVSYISSGSSPIYYVDKLKGRFTISRDNAKNSLYLQMNSLRAEDTAVYYCARAGYAVRNALDYWGQGTLVTVSS VL: DIVMTQSPPTLSLSPGERVTLSCKSSQSLLNVGNQKNYLAWYQQKPGQAPRLLIYGASTRESGIPDRFSGSGSGTDFTLTISSLQPEDFAVYYCQNDLFYPLTFGGGTKVEIK			2.28			
413H9F8-cp6 (antibody, V domains shown, humanized IgG; constant regions not specified) VH: DVQLVESGGGLVQPGGSLRLSCAASGFTFSSFGMHWVRQAPGKGLEWVAYISSGSSPIYYVDKLKGRFTVSRDNAKNSLYLQMNSLRAEDTAVYYCARAGYAVRNALDYWGQGTLVTVSS VL: DIVMTQSPPTLSLSPGERVTLSCKSSQSLLNVGNQKNYLAWYQQKPGQAPRLLIYGASTRESGIPDRFSGSGSGTDFTLTISSLQPEDFAVYYCQNDLFYPLTFGGGTKVEIK			2.32			
413H9F8-cp9 (antibody, V domains shown, humanized IgG; constant regions not specified) VH: DVQLVESGGGLVQPGGSLRLSCAASGFTFSSFGMHWVRQAPGKGLEWVAYISSGSSPIYYVDKLKGRFTVSRDNAKNSLYLQMNSLRAEDTAVYYCARAGYAVRNALDYWGQGTLVTVSS VL: DIVMTQSPPTLSLSPGERVTLSCKSSQSLLNVGNQKNYLAWYQQKPGQAPKLLIYGASTRESGIPDRFSGSGSGTDFTLTISSLQPEDFAVYYCQNDLFYPLTFGGGTKVEIK			2.21			
413H9F8-cp10 (antibody, V domains shown, humanized IgG; constant regions not specified) VH: EVQLVESGGGLVQPGGSLRLSCAASGFTFSSFGMHWVRQAPGKGLEWVSYISSGSSPIYYVDKLKGRFTISRDNAKNSLYLQMNSLRAEDTAVYYCARAGYAVRNALDYWGQGTLVTVSS VL: DIVMTQSPPTLSLSPGERVTLSCKSSQSLLNVGNQKNYLAWYQQKPGQAPKLLIYGASTRESGIPDRFSGSGSGTDFTLTISSLQPEDFAVYFCQNDLFYPLTFGGGTKVEIK			3.69			
413H9F8-cp11 (antibody, V domains shown, humanized IgG; constant regions not specified; also called 413H9F8-cp811) VH: DVQLVESGGGLVQPGGSLRLSCAASGFTFSSFGMHWVRQAPGKGLEWVAYISSGSSPIYYVDKLKGRFTISRDNAKNSLYLQMNSLRAEDTAVYYCARAGYAVRNALDYWGQGTLVTVSS VL: DIVMTQSPPTLSLSPGERVTLSCKSSQSLLNVGNQKNYLAWYQQKPGQAPKLLIYGASTRESGIPDRFSGSGSGTDFTLTISSLQPEDFAVYFCQNDLFYPLTFGGGTKVEIK			2.61			
413H9F8-cp12 (antibody, V domains shown, humanized IgG; constant regions not specified) VH: DVQLVESGGGLVQPGGSLRLSCAASGFTFSSFGMHWVRQAPGKGLEWVAYISSGSSPIYYVDKLKGRFTVSRDNAKNSLYLQMNSLRAEDTAVYYCARAGYAVRNALDYWGQGTLVTVSS VL: DIVMTQSPPTLSLSPGERVTLSCKSSQSLLNVGNQKNYLAWYQQKPGQAPKLLIYGASTRESGIPDRFSGSGSGTDFTLTISSLQPEDFAVYFCQNDLFYPLTFGGGTKVEIK			3.01			
